Results: PMC7592150

Molecular target: PCSK9 (UniProt Q8NBP7)
Test: SPR

Sequence of UniProt Q8NBP7 (Q8NBP7 31-692): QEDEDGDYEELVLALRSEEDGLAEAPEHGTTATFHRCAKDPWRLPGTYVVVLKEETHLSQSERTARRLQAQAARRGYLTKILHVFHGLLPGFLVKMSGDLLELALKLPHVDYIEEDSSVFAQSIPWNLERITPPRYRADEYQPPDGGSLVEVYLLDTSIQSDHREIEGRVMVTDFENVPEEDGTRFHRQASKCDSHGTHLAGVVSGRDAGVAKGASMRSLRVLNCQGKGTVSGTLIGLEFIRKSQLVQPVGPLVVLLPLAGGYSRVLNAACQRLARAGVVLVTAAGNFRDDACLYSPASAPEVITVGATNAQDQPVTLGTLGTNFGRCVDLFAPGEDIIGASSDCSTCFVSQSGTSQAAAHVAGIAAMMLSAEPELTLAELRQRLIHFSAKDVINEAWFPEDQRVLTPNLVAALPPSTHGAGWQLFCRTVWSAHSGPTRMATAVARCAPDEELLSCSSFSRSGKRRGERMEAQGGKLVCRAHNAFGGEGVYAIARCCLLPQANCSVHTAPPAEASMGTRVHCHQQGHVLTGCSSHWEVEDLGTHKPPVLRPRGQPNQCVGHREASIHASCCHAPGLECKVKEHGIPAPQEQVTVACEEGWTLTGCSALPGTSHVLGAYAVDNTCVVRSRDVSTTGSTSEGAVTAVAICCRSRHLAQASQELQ

Substance: Bococizumab (antibody)
- Kd: 0.03 nM
